Measured values: PMC3169606, “Pub1p C-Terminal RRM Domain Interacts with Tif4631p through a Conserved Region Neighbouring the Pab1p Binding Site” (PLoS ONE, 2011)

T1: Pub1p R3 (RRM3, TRRM) (Saccharomyces cerevisiae, UniProt P32588 315-414)
T1 sequence: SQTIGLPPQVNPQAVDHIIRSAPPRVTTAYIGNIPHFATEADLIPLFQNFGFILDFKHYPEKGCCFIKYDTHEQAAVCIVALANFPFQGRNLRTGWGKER

T2: Tif4631p (1–402) (Saccharomyces cerevisiae, UniProt P39935 1-402)
T2 construct: Cloned 'following equivalent methods' to the Pub1p constructs (same modified pET28 vector); Unlabelled or 15N-labelled according to the NMR experiment; source: E. coli BL21(DE3), purified (HisTrap, TEV digestion, second nickel column, anion exchange MonoQ); not shown: thioredoxin A, N-terminal, cleaved; His6, internal, cleaved
T2 sequence (looked up): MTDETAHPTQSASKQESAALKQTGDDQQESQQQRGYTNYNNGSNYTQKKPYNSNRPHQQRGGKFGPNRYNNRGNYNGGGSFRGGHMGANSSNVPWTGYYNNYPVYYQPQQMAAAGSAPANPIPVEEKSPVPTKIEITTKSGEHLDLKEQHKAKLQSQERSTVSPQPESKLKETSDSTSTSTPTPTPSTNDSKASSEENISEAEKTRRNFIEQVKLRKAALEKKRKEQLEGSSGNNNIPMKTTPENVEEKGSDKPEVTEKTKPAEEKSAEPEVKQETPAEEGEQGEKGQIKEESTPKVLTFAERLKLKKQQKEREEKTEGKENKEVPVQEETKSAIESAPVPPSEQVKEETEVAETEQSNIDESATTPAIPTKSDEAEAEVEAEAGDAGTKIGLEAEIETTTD

T3: Tif4631p (1–184) (Saccharomyces cerevisiae, UniProt P39935 1-184)
T3 construct: Tif4631p (yeast eIF4G1), Saccharomyces cerevisiae, residues 1-184; Cloned 'following equivalent methods' to the Pub1p constructs; source: E. coli BL21(DE3), purified (HisTrap, TEV digestion, second nickel column, anion exchange MonoQ); not shown: thioredoxin A, N-terminal, cleaved; His6, internal, cleaved
T3 sequence (looked up): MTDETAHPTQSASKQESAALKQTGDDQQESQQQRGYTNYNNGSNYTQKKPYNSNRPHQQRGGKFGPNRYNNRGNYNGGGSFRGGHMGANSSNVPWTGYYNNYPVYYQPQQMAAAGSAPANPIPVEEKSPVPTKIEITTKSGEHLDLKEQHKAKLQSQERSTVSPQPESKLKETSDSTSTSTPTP

T4: Pub1p R12 (RRM1-RRM2) (Saccharomyces cerevisiae, UniProt P32588 32-242)
T4 sequence: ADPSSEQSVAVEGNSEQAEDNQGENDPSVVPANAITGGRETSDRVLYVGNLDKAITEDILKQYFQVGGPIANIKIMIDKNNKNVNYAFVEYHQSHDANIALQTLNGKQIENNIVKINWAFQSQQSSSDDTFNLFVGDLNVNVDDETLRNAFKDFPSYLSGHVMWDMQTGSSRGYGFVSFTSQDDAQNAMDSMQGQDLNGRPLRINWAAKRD

B1: U10 (ssRNA)
RNA: UUUUUUUUUU
B2: (AG)4 (ssRNA)
RNA: AGAGAGAG
B3: Pub1p R3 (RRM3 domain, residues 315–414) (domain or fragment, Saccharomyces cerevisiae, UniProt P32588 315-414, looked up)
chain: T1 sequence
notes: also called Pub1p TRRM; Pub1p RRM3; source: E. coli BL21(DE3), purified (HisTrap, TEV digestion, second nickel column, cation exchange); not shown: thioredoxin A, N-terminal, cleaved; His6, internal, cleaved
B4: A14 (ssRNA)
RNA: AAAAAAAAAAAAAA
B5: (UA)6 (ssRNA)
RNA: UAUAUAUAUAUA
B6: (CU)6 (ssRNA)
RNA: CUCUCUCUCUCU
B7: U14 (ssRNA)
RNA: UUUUUUUUUUUUUU
B8: U12 (ssRNA)
RNA: UUUUUUUUUUUU
B9: (UA)7 (ssRNA)
RNA: UAUAUAUAUAUAUA

Experiments:
Pub1p R3 (RRM3, TRRM) [1] = target: T1, Pub1p R3 (RRM3, TRRM); test: NMR titration; 1:1 protein:RNA; Kd n.d.; 25 mM potassium phosphate pH 7.0 (6.5-7.0 in general NMR methods), 25 mM NaCl, 0.5 mM DTT, 25 C; 100 µM protein, RNA up to 400 µM (R3) or 1:1 (R12); details: protein: recombinant; tags: TrxA-6xHis tag removed by TEV; chain copies: 2; single strand
Pub1p R3 (RRM3, TRRM) [2] = target: T1, Pub1p R3 (RRM3, TRRM); test: NMR titration; 1:1 protein:RNA; 25 mM potassium phosphate pH 7.0 (6.5-7.0 in general NMR methods), 25 mM NaCl, 0.5 mM DTT, 25 C; 100 µM protein, RNA up to 400 µM (R3) or 1:1 (R12); details: protein: recombinant; tags: TrxA-6xHis tag removed by TEV; chain copies: 2; single strand
Tif4631p (1–402) = target: T2, Tif4631p (1–402); test: NMR titration; 1H-15N HSQC of 100 µM 15N-labelled Tif4631p (1–402) with 120 µM unlabelled Pub1p R3 added; 25 mM potassium phosphate pH 7.0, 25 mM NaCl, 0.1 mM DTT, 25°C; details: both partners purified
Tif4631p (1–184) = target: T3, Tif4631p (1–184); test: cross-linking; glutaraldehyde by vapour diffusion, 16 h at 4°C; Pub1p proteins 10 µM, Tif4631p (1–402) 1 µM, Tif4631p (1–184) 4 µM; 25 mM potassium phosphate, 150 mM NaCl, 0.1 mM DTT, pH 8.0; 15% SDS-PAGE, silver stain; details: both partners purified
Pub1p R3 (RRM3, TRRM) [3] = target: T1, Pub1p R3 (RRM3, TRRM); test: NMR titration; 2:1 protein:RNA; 25 mM potassium phosphate pH 7.0 (6.5-7.0 in general NMR methods), 25 mM NaCl, 0.5 mM DTT, 25 C; 100 µM protein, RNA up to 400 µM (R3) or 1:1 (R12); details: protein: recombinant; tags: TrxA-6xHis tag removed by TEV; chain copies: 2; single strand
Pub1p R12 (RRM1-RRM2) [4] = target: T4, Pub1p R12 (RRM1-RRM2); test: NMR titration; slow exchange; 25 mM potassium phosphate pH 7.0 (6.5-7.0 in general NMR methods), 25 mM NaCl, 0.5 mM DTT, 25 C; 100 µM protein, RNA up to 400 µM (R3) or 1:1 (R12); details: protein: recombinant; tags: TrxA-6xHis tag removed by TEV; single strand
Pub1p R12 (RRM1-RRM2) [5] = target: T4, Pub1p R12 (RRM1-RRM2); test: NMR titration; intermediate exchange; 25 mM potassium phosphate pH 7.0 (6.5-7.0 in general NMR methods), 25 mM NaCl, 0.5 mM DTT, 25 C; 100 µM protein, RNA up to 400 µM (R3) or 1:1 (R12); details: protein: recombinant; tags: TrxA-6xHis tag removed by TEV; single strand

Binder | binding result (Pub1p R3 (RRM3, TRRM) [1]) | Kd (Pub1p R3 (RRM3, TRRM) [3]) | further results
B1 | binds | – | –
B2 | – | – | Kd (Pub1p R3 (RRM3, TRRM) [2]): 88.3 µM
B3 | – | – | binding result (Tif4631p (1–402)): binds; binding result (Tif4631p (1–184)): binds
B4 | – | 78.5 µM | –
B5 | binds | – | –
B6 | – | – | Kd (Pub1p R3 (RRM3, TRRM) [2]): 18.8 µM
B7 | – | 2.16 µM | Kd (Pub1p R12 (RRM1-RRM2) [4]): < 0.25 µM
B8 | binds | – | –
B9 | – | < 1 µM | Kd (Pub1p R12 (RRM1-RRM2) [5]): 0.894 µM
